Data from patent US7335814B2, “Transgenic cells expressing glucosyltransferase nucleic acids” (The University of York, priority 2000, dated 2008).

Experiments:
Assay in all cases: purified protein, by the assay type
Settings in all cases: other: glucose ester formation; pH 7.0; 30.0 °C
[1] = substrate: COc1cc(/C=C/C(=O)O)ccc1O
[2] = substrate: O=C(O)/C=C/c1ccc(O)cc1
[3] = substrate: O=C(O)C=Cc1ccccc1

B1: recombinant GTase A911 (Arabidopsis thaliana) (protein)
chain: MGSSEGQETHVLMVTLPFQGHINPMLKLAKHLSLSSKNLHINLATIESARDLLSTVEKPRYPVDLVFFSDGLPKEDPKAPETLLKSLNKVGAMNLSKIIEEKRYSCIISSPFTPWVPAVAASHNISCAILWIQACGAYSVYYRYYMKTNSFPDLEDLNQTVELPALPLLEVRDLPSFMLPSGGAHFYNLMAEFADCLRYVKWVLVNSFYELESEIIESMADLKPVIPIGPLVSPFLLGDGEEETLDGKNLDFCKSDDCCMEWLDKQARSSVVYISFGSMLETLENQVETIAKALKNRGLPFLWVIRPKEKAQNVAVLQEMVKEGQGVVLEWSPQEKILSHEAISCFVTHCGWNSTMETVVAGVPVVAYPSWTDQPIDARLLVDVFGIGVRMRNDSVDGELKVEEVERCIEAVTEGPAAVDIRRRAAELKRVARLALAPGGSSTRNLDLFISDITIA
With B1 the Km [1] was 340 µM, the Km [2] was 390 µM and the Vmax [2] was 11.10 nkat/mg. The Km [3] was 50 µM.
